Here are results for six molecules from US20240392024A1 (SHANGHAI CELGEN BIO PHARMACEUTICAL, published 2024).

Numbering of substitutions follows the chain as printed. Where “and” joins values, the source holds several entries; their conditions need not be identical. Equal entries are not always repeated.

B1: anti-human TNFR2 mouse monoclonal antibody 12E12 (antibody, V domains shown)
VH: EVQLQQSGAELVKPGASVKLSCTVSGFNIKDFYIHWVKQRPEQGLEWIGRVDPEDGNTEYAPNFQDRATMTTDTSSNTAYLQLSSLTSVDTAVYYCSTWDGFSYFDYWGLGTTLTVSS
VL: QAVVTQESALTTSPGETVTLTCRSSTGPVTTNNYANWVQEKPDHLFTGLIGGTNDRAPGVPARFSGSLIGDKTALTITGTQTEDEAVYFCALWYRNHWVFGGGTKLTVL
B2: anti-human TNFR2 mouse monoclonal antibody 13F5 (antibody, V domains shown)
VH: QVQLQQSGAELVRPGTSVKMSCKASGYTFTNYWIGWTKQRPGHGLEWIGDIFPGGDFTNYNEKFKGKATLTADKSSSTAYLQFSSLTSEDSAIYYCSRRRFTTIVAPGFDYWGQGTTLTVSS
VL: QLVLTQSSSASFSLGASAKLTCTLSSQHSMYTIEWYQQQPLKPPKFVMELKKDGSHSTGDGIPDRFSGSSSGADRYLNISNIQPEDEAIYICGVGDTIKEQFVYVFGGGTEVTVL
B3: anti-human TNFR2 mouse monoclonal antibody 7F2 (antibody, V domains shown)
VH: QVTLKESGPGILQPSQTLSLTCSFSGFSLNTFGLGVGWIRQPSGKGLEWLTHIWWNDDKYYNPALKSRLTISRDTSENLVFLKIANVDTADTATYYCARIEGLRRFDYWGQGTTLTVSS
VL: DIQMTQSPSSLSASLGGKVTITCKTSQDINKFIAWYQHKPGKGPRLLIHYTSTLQPGIPSRFSGSGSGRDYSFSISDLEPEDIATYYCLQYANLWAFGGGTKLEIK
B4: anti-human TNFR2 mouse monoclonal antibody 29A1 (antibody, V domains shown)
VH: QVQLQQSGAEVVRPGASVTLSCKASGYTFSDYEMHWVKQTPVHGLEWIGAIDPETGDTAYNQKFKDKARVTADKSSSTAYMELRSLTSEDSAVYYCTRDIHYYGSSLSYFDYWGQGTTLTVSS
VL: DIVMTQSQKFMSTSVGDRVSVTCKASQNVGTNVAWYQQKPGQSPKVMIYSASYRYSGAPDRFTGSGSGTDFTLTVNNVQSEDLAEYFCQQYKTYPYTFGGGTKLEIE
B5: anti-human TNFR2 mouse monoclonal antibody 27F6 (antibody, V domains shown)
VH: EVQLQQSGTVLARPGASVKMSCKTSGYTFTSYWMHWVKQRPGQGLEWIGTIYPGNSDTSYNQKFKGKAKLTAVTSASTAYMELNSLTNEDSAVFYCTRENLLLRSYFFDYWGQGTTLTVSS
VL: DIVMTQSPASLAVSLGQRATISCKASQSVDYDGDSYLNWYQQKPGQPPKLLIYAASNLPSGIPARFSGSGSGTDFTLNIHPVEEEDAATYYCQQSNEDPRTFGGGTKLEIK
B6: human-mouse chimeric TNFR2 monoclonal antibody 16D2-hFc (antibody, V domains shown)
VH: EVQLQQSEPELVKPGASVKIPCKASGYTFTDYNMDWVKQSHGKSLEWIGDINPNNGVTIYNQKFKGKATLTVDKSSSTAYMELRSLTSEDTAVYYCVILEYFDYWGQGTTLTVSS
VL: DIVMTQSTSSMSVSLGDTVSITCHASQGISSNIGWLQQKPGKSFKGLIYHGTKLEDGVPSRFSGSGSGADYSLTISSLESEDFADYYCVQYAQFPRTFGGGTKLEIK
notes: Mouse V regions of clone 16D2 with human constant regions

The target of one assay is T1, recombinant mouse TNFR2 (mTNFR2) (Sino Biological, 50128-M08H) (mouse, UniProt P25119 23-258).
T1 sequence (looked up): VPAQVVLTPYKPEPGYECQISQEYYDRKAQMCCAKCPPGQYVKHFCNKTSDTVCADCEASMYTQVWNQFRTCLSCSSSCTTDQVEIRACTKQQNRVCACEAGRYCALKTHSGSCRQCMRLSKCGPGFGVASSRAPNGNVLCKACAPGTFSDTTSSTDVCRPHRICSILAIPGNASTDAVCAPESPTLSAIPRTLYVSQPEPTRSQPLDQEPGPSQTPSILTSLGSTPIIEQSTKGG
Briefly: ELISA, coated mouse TNFR2. Here is the method:
(§1) After TMB development, the detection was performed using microplate reader: dual wavelength 450 nm/655 nm detection, and results were calculated by OD₄₅₀-OD₆₅₅.
(§2) Using the same method as above, the TNFR2 antigens of cynomolgus monkey and mouse (Sino Biological, 90102-C021 and 50128-M08H) were coated separately. The anti-human TNFR2 mouse monoclonal antibodies to be tested were gradient diluted, then added with the anti-mouse Fab segment secondary antibody (Jackson Immuno Research, 515-035-072), and TMB development was performed. ELISA was used to detect the binding of 8 strains of mouse monoclonal antibodies to recombinant mouse TNFR2 (mTNFR2) and cynomolgus monkey TNFR2 (Cyno. TNFR2).
In the case of B1, the binding result was “no binding”.
In the case of B2, the binding result is on record as “no binding”.
On the same count and under the same terms, with B3 the entry was “no binding”; with B4, “no binding”; with B5, “no binding”.

In a further assay the target is T2, recombinant cynomolgus monkey TNFR2 (Cyno. TNFR2) (Sino Biological, 90102-C021) (cynomolgus monkey, UniProt A0A2K5VET2 132-366).
T2 sequence: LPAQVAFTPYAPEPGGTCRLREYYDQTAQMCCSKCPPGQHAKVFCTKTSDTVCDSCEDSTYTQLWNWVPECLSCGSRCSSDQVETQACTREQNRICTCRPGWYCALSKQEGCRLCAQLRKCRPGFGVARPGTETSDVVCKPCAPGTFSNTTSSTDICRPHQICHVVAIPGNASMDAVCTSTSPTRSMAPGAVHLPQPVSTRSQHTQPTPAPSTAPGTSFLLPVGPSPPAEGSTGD
Briefly: ELISA, coated cynomolgus TNFR2. Here is the method:
as §1, §2
For B1, the concentration giving a half-maximal response (EC50) came to 0.139 µg/mL.
On the same count and under the same terms, as for B3, the figure is 0.119 µg/mL; as for B4, 0.0562 µg/mL.
The same measure, in the same setting: with B5 the figure was 0.0756 µg/mL.

Another assay addresses T3, human TNFR2 on the cell membrane (human, UniProt P20333 23-461).
T3 construct: whole, on cells; One molecule for all cell formats; also called TNFR2-CHO cells; CHO-TNFR2
T3 sequence (looked up): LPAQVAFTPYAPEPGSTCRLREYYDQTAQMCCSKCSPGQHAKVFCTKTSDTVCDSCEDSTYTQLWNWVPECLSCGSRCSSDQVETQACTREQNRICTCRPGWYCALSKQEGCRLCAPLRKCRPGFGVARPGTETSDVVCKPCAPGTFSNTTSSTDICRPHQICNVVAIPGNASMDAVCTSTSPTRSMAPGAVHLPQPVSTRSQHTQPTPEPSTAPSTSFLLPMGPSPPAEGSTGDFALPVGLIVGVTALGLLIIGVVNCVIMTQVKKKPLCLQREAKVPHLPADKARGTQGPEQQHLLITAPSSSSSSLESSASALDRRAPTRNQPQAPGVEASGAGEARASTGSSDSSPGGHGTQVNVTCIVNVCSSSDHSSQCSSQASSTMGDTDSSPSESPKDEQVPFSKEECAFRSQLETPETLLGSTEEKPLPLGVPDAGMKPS
In words: flow cytometry, TNFR2-CHO cells. The protocol:
(§3) Purified anti-human TNFR2 mouse monoclonal antibodies were co-incubated with TNFR2 overexpressing CHO cell lines (obtained routinely as follows: PCDNA3.4-TNFR2 was transfected into CHO cells, and stable high expression TNFR2 cell lines were obtained through drug screening and monoclonal sorting), and then stained. The antibody binding intensity was analyzed by flow cytometry. The specific steps are as follows: TNFR2-CHO cells were counted, centrifuged, resuspended, then added to a 96-deep well plate, and the supernatant was discarded. The anti-TNFR2 antibodies to be tested were gradient diluted, added to the 96-deep well plate. […] The samples were detected using Beckman CytoFLEX.
The molecule B1 had a concentration for a half-maximal effect (EC50) of 0.147 µg/mL.
Molecule B3 gave a half-maximal effective concentration (EC50) of 0.364 µg/mL.
Molecule B4 showed an EC50 of 0.178 µg/mL.
The same measure, in the same setting: as for B5, the figure is 0.187 µg/mL.

The next assay has as its target T4, recombinant human TNFR2 antigen (Kangdai, batch number A100114U) (human, UniProt P20333 23-257).
T4 construct: also called hTNFR2; TNFR2-FC (Shanghai Saijin Biopharmaceutical Co., Ltd., Qiangke, catalog number A100114U); not shown: Fc part of the bought TNFR2-FC
T4 sequence (looked up): T2 sequence with G16S, P36S, Q117P, H164N, A210E, G216S, V223M
Briefly: ELISA, coated recombinant human TNFR2. Here is the method: as §1
As for B1, the EC50 was determined as 0.0707 µg/mL.
The same measure, in the same setting: as for B2, the figure is 0.0638 µg/mL; as for B3, 0.0623 µg/mL.
Same read-out and setting: with B4 the figure was 0.0255 µg/mL; with B5, 0.0366 µg/mL.

In another assay the target is T3, human TNFR2 on the cell membrane. In words: flow cytometry on TNFR2-CHO cells. Here is the method: as §3
Consider B1, for which the concentration giving a half-maximal response (EC50) turned out to be 986 pM.
Same read-out and setting: with B3 the figure was 2440 pM; with B4, 1190 pM.
Still for that read-out and setting: as for B5, the figure is 1250 pM.

The next assay shares this target. Briefly: flow cytometry on human PBMC, CD3+ T cells. Here is the method: Purified anti-human TNFR2 human-mouse chimeric monoclonal antibodies were co-cultured with PBMC cells (Oricells) and stained. The binding of the antibody was analyzed by flow cytometry. The specific steps are as follows: PBMC cells (Oricells) were counted, centrifuged, resuspended, then added to a 96-deep well plate, and the supernatant was discarded. Diluted anti-TNFR2 monoclonal antibodies were added.
As to B6, the “percent of cells in the upper right quadrant (Q1-UR, CD3+ and anti-human IgG Fc+)” value is 9.66%.

For a further assay, the target named is T4, recombinant human TNFR2 antigen …. Briefly: ELISA, plate coated with recombinant human TNFR2 antigen. Here is the method: as §1
For the molecule B1, the EC50 was 474 pM.
On the same count and under the same terms, with B2 the figure was 428 pM; with B3, 418 pM; with B4, 171 pM.
The same measure, in the same setting: as for B5, the figure is 245 pM.

For a further assay, the target named is T2, recombinant cynomolgus monkey TNFR2 …. Briefly: ELISA, plate coated with recombinant cynomolgus monkey TNFR2. The protocol: as §1, §2
Take B1: the EC50 was 933 pM.
On the same count and under the same terms, with B2 the figure was > 1 µg/mL and > 6.7 nM.
Regarding B3, the concentration giving a half-maximal response (EC50) was determined as 795 pM.
Consider B4, for which the 50% effective concentration (EC50) is 377 pM.
Same read-out and setting: with B5 the figure was 506 pM.
